Data from patent US20170023548.

T1: hATP11C-GFP (human ATP11C tagged with GFP at the C-terminus), Q8NB49
T1 chain: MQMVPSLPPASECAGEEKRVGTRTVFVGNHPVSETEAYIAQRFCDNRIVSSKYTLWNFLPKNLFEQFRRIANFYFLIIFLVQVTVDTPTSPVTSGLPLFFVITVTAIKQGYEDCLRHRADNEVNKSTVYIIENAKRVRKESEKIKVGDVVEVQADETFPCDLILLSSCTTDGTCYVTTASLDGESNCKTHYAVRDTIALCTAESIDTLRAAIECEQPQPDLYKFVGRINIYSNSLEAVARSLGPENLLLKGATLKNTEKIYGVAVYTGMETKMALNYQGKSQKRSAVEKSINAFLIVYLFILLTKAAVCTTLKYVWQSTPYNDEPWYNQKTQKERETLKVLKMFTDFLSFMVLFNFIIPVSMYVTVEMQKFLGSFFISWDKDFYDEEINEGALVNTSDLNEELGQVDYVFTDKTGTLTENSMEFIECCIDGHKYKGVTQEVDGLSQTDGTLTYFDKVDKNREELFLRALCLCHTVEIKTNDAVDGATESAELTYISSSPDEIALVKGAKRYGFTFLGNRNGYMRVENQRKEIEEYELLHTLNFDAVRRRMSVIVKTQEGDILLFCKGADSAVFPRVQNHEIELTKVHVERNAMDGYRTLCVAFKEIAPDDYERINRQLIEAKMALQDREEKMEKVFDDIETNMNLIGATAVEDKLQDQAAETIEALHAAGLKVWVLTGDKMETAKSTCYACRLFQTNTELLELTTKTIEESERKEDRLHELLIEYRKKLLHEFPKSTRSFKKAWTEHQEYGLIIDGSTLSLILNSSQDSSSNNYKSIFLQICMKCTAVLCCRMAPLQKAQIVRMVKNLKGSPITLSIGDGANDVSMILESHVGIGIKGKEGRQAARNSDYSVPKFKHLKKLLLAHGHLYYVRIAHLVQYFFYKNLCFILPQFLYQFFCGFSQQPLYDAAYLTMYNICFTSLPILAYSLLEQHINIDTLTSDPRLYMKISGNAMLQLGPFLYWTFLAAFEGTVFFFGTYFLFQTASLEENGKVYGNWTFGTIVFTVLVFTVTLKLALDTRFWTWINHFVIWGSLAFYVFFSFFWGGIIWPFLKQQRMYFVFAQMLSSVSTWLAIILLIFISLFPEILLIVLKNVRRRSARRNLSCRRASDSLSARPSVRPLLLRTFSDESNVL

B1: recombinant human caspase-7 (Biovision) (protein)
chain: AKPDRSSFVPSLFSKKKKNVTMRSIKTTRDRVPTYQYNMNFEKLGKCIIINNKNFDKVTGMGVRNGTDKDAEALFKCFRSLGFDVIVYNDCSCAKMQDLLKKASEEDHTNAACFACILLSHGEENVIYGKDGVTPIKDLTAHFRGDRCKTLLEKPKLFFIQACRGTELDDGIQADSGPINDTDANPRYKIPVEADFLFAYSTVPGYYSWRSPGRGSWFVQALCSILEEHGKDLEIMQILTRVNDRVARHFESQSDDPHFHEKKQIPCVVSMLTKELYFSQ
B2: recombinant human caspase-6 (Biovision) (protein)
chain: AFYKREMFDPAEKYKMDHRRRGIALIFNHERFFWHLTLPERRGTCADRDNLTRRFSDLGFEVKCFNDLKAEELLLKIHEVSTVSHADADCFVCVFLSHGEGNHIYAYDAKIEIQTLTGLFKGDKCHSLVGKPKIFIIQACRGNQHDVPVIPLDVVDNQTEKLDTNITEVDAASVYTLPAGADFLMCYSVAEGYYSHRETVNGSWYIQDLCEMLGKYGSSLEFTELLTLVNRKVSQRRVDFCKDPSAIGKKQVPCFASMLTKKLHFFPKSN
B3: recombinant human caspase-3 (Biovision) (protein)
chain: SGISLDNSYKMDYPEMGLCIIINNKNFHKSTGMTSRSGTDVDAANLRETFRNLKYEVRNKNDLTREEIVELMRDVSKEDHSKRSSFVCVLLSHGEEGIIFGTNGPVDLKKITNFFRGDRCRSLTGKPKLFIIQACRGTELDCGIETDSGVDDDMACHKIPVEADFLYAYSTAPGYYSWRNSKDGSWFIQSLCAMLKQYADKLEFMHILTRVNRKVATEFESFSFDATFHAKKQIPCIVSMLTKELYFYH

Target: T1, hATP11C-GFP (human ATP11C tagged with …)

Row | Protein | cleavage of hATP11C-GFP in solubilized membrane fraction, Western blotting with anti-GFP
1 | B1 | hATP11C was cleaved by caspase-3, -6 and -7
2 | B2 | hATP11C was cleaved by caspase-3, -6 and -7
3 | B3 | hATP11C was cleaved by caspase-3, -6 and -7
